Laboratory results as given in patent publication US11219221B2 (FarmHannong Co., Ltd., priority 2017, dated 2022).

Key:
[1] = test system: CyPPO17; assay: Herbicide tolerance test of CyPPO17 wild type and variants in PPO-deficient E. coli BT3(ΔPPO); assay type: cell-based, Thermosynechococcus sp. NK55a; conditions: BT3(ΔPPO) transformants; for Herbicide tolerance, tiafenacil: 37° C., 16 to 20 hours
Method: The mutated CyPPO gene obtained from the Example 2 was transformed to BT3 (ΔPPO) strain which is deficient of PPO activity and cultured in LB media with PPO-inhibiting herbicide, thereby examining whether growth of transformed BT3 was not inhibited.
BT3 competent cells were transformed with the pET303-CyPPO16 and pET303-CyPPO17 plasmids and those with a mutation(s) constructed in Example 2 respectively, and were cultured in LB agar media containing carbenicillin (Gold Biotechnology, Co., Ltd.).
Single colony of E. coli transformed with each CyPPO gene was cultured in 3 ml of LB broth containing carbenicillin overnight, and then was subcultured until absorbance (0D600) reached 0.5 to 1. Then, it was diluted with LB broth to OD600=0.5. Again, the diluted solution was serially diluted 4 times by a factor of one tenth.
The LB agar media (LB 25 g/l, Bacto agar 15 g/l) containing carbenicillin (100 μg/ml) and 0 to 4,000 μM of various herbicides dissolved in DMSO was prepared. Next, 10 μl of each diluted solution was dropped on the plate and cultured at 37° C. under light (Tables 7 and 9, FIGS. 2 to 6, and 18 to 22) or dark (Tables 8 and 10, FIGS. 7 to 17, and 23 to 33) for 16 to 20 hours. Then, extent of tolerance was evaluated.
The extent of herbicide tolerance of the mutated genes was evaluated by comparing that of mutated genes with that of wild type. The relative tolerance was represented with “+” as a factor of 10 times. Evaluation result was listed in Tables 7 to10 and FIGS. 2 to 33:
In Tables 7 to 10, tolerance level was presented as of tolerance of wild type and of variants equivalent to that of wild type, and was done as ‘+’ per each 10 fold resistance until ‘+++++’ as maximal resistance. (Tolerance level was evaluated by relative growth level of variants to that of wild type in the media containing highest concentration of herbicide; ‘+’=1-9 fold higher tolerance, ‘++’=10-99 fold higher tolerance, ‘+++’=100-999 fold higher tolerance, ‘++++’=1,000-9,999 fold higher tolerance, ‘+++++’=more than 10,000 fold higher tolerance)
The concentrations of herbicides were written above the photographs of tolerance test. A dilution series (0D600=0.5, 0.05, 0.005, 0.0005, 0.00005) was made and spotted on LB agar plates supplemented with herbicides.

[2] = test system: CyPPO17; assay: PPO enzyme activity of MBP-fused CyPPO17 wild type and variants; assay type: biochemical, Thermosynechococcus sp. NK55a; conditions: PPO enzyme activity relative to wild type; MBP-fused protein, 50 μM protoporphyrinogen IX, room temperature, 30 min
Method: Thus, PPO proteins of wild type and variants were expressed as fused to MBP and were used for experiments.
The following process for purification of PPO protein was performed in a 4° C. cold room. Amylose resin (NEB) was packed to 1.5×15 cm column (Bio-Rad, Econo Columns 1.5×15 cm, glass chromatography column, max. vol), and the obtained protein extracts were loaded to the column at a flow rate of 0.2 ml/min. The column was washed with 3 column volumes of buffer and the presence of protein in the washing solution was examined. When the protein was no longer detected, the washing procedure was terminated. Then, the MBP-PPO protein was eluted with approximately 2 column volumes of buffer containing 20 mM maltose. The protein concentration of each eluent was determined and the elution was stopped when the protein was no longer detected. Ten microliter of each fraction was investigated for protein quantification and SDS-PAGE analysis. The highly pure fractions of PPO protein variants were used for the enzyme assay.
Since protoporphyrinogen IX, a substrate of PPO protein, was not commercially available, it was chemically synthesized in the laboratory. Overall process was performed in dark under nitrogen stream. […] of protoporphyrin IX was dissolved in 20 ml of 20% (v/v) EtOH, and stirred under dark condition for 30 minutes. The obtained protoporphyrin IX solution was put into a 15 ml screw tube in an amount of 800 μl, and flushed with nitrogen gas for 5 minutes. To this, 1.5 g of sodium amalgam was added and vigorously shaken for 2 minutes. The lid was opened to exhaust hydrogen gas in the tube. Thereafter, the lid was closed and incubated for 3 minutes. The protoporphyrinogen IX solution was filtered using syringe and cellulose membrane filter. […] To determine the enzyme activity of PPO protein, a reaction mixture was prepared with the following composition (based on 10 ml): 50 mM Tris-Cl (pH 8.0); 50 mM NaCl; 0.04% (v/v) Tween 20; 40 mM glucose (0.072 g); 5 units glucose oxidase (16.6 mg); and 10 units catalase (1 μl).
Hundred and eighty microliters of a reaction mixture containing the purified PPO protein were placed in 96 well plates and 20 μl of […] were added. […] The reaction proceeded at room temperature for 30 min and the fluorescence of protoporphyrin IX was measured using Microplate reader (Sense, Hidex) (excitation: 405 nm; emission: 633 nm). […] To this, 2.7 N HCl was added, and the absorbance at 408 nm was measured. A standard curve was generated using standard protoporphyrin IX, and PPO activity was measured by calibration of protoporphyrin IX using the standard curve of protoporphyrin IX.
Activities of variants were presented relatively compared to that of wild type.

[3] = one amino acid mutation, light, relative to wild type at highest concentration (50, 100 μM)
[4] = one amino acid mutation, light, relative to wild type at highest concentration (5, 25 μM)

Molecule	Herbicide tolerance, tiafenacil [1, 3]	Herbicide tolerance, pyraflufen-ethyl ([1]; one amino acid mutation, light, relative to wild type at highest concentration (5, 10 μM))	Herbicide tolerance, acifluorfen [1, 4]	Herbicide tolerance, fomesafen [1, 4]	Herbicide tolerance, pentoxazone [1, 4]	Herbicide tolerance, pyraclonil [1, 4]	Herbicide tolerance, sulfentrazone [1, 4]	Herbicide tolerance, flumioxazin [1, 3]	Herbicide tolerance, saflufenacil ([1]; one amino acid mutation, light, relative to wild type at highest concentration (50, 200 μM))	Activity (%) [2]	Herbicide tolerance, tiafenacil ([1]; two or more amino acid mutations, dark, relative to wild type at highest concentration (50, 200 μM))	Herbicide tolerance, flumioxazin ([1]; two or more amino acid mutations, dark, relative to wild type at highest concentration (100, 200 μM))	Herbicide tolerance, sulfentrazone ([1]; two or more amino acid mutations, dark, relative to wild type at highest concentration (200, 400 μM))
F359V: CyPPO17 variant (protein, Synthetic (Protoporphyrinogen IX oxidase (CyPPO17) of Thermosynechococcus sp. NK55a), CyPPO17 variant) MEVDVAIVGGGLSGLSVAWRLQQSAPQYSGVLLEASDRLGGNITTQGAEGFVWELGPNSFAPTPALLQLIAEVGLHSELIRGDRHLPRYIYWRGELYPLEPTRPLALATSNLLSPWGKVRAALGALGFVPPYLGSGDESVNSFFRRHLGQEVAERLVAPFVSGVYAGDPQQLSAAAAFRRIAQLEKLGGGLIAGALRLRRQQPPKPRPPAEVQMRPGELGSFKEGLAALPRAIAQQLKAPVHLQTPVEAITPEPNGGYLLRSGEQTWQARSVVLATPAYQTAALVAPFQPAIARVLAAIPYPTVACVVLAYPAGLGRSVRPGFGVLIPRGQGIRTLGTIWSSCLFPQRTPAGWQVFTSVIGGATDPDLASLREEAIVQQVQQDLTRLLDLPAAKARLLGMKVWRRAIPQYLVGYPQQWQQVTHALSQTPGLFLCSNYAEGVALGDRVEHGNRTAAAVAAYLSGGQS	++ (‘++’=10-99 fold higher tolerance)	++ (‘++’=10-99 fold higher tolerance)	+ (‘+’=1-9 fold higher tolerance)	+ (‘+’=1-9 fold higher tolerance)	++ (‘++’=10-99 fold higher tolerance)	+ (‘+’=1-9 fold higher tolerance)	++ (‘++’=10-99 fold higher tolerance)	++ (‘++’=10-99 fold higher tolerance)	+++ (‘+++’=100-999 fold higher tolerance)	84%			
L326T + F359M: CyPPO17 variant (protein, Synthetic (Protoporphyrinogen IX oxidase (CyPPO17) of Thermosynechococcus sp. NK55a), CyPPO17 variant) MEVDVAIVGGGLSGLSVAWRLQQSAPQYSGVLLEASDRLGGNITTQGAEGFVWELGPNSFAPTPALLQLIAEVGLHSELIRGDRHLPRYIYWRGELYPLEPTRPLALATSNLLSPWGKVRAALGALGFVPPYLGSGDESVNSFFRRHLGQEVAERLVAPFVSGVYAGDPQQLSAAAAFRRIAQLEKLGGGLIAGALRLRRQQPPKPRPPAEVQMRPGELGSFKEGLAALPRAIAQQLKAPVHLQTPVEAITPEPNGGYLLRSGEQTWQARSVVLATPAYQTAALVAPFQPAIARVLAAIPYPTVACVVLAYPAGLGRSVRPGFGVTIPRGQGIRTLGTIWSSCLFPQRTPAGWQVFTSMIGGATDPDLASLREEAIVQQVQQDLTRLLDLPAAKARLLGMKVWRRAIPQYLVGYPQQWQQVTHALSQTPGLFLCSNYAEGVALGDRVEHGNRTAAAVAAYLSGGQS										74%	++++ (‘++++’=1,000-9,999 fold higher tolerance)	++++ (‘++++’=1,000-9,999 fold higher tolerance)	+++ (‘+++’=100-999 fold higher tolerance)
